Experimental data reported in patent publication US20110286916A1.

Experiments:
[1] = target: endogenous human Notch1 on 293 FlpIn (TREx) parental, LS-1034 and BxPC3 cells (human) (UniProt P46531); assay: FACS, LS-1034 and BxPC3 cells
[2] = target: human full-length Notch1 with C-terminal FLAG tag, stably expressed on 293 FlpIn (TREx) cells (human) (UniProt P46531); assay: FACS, 293 FlpIn (TREx) cells expressing Notch1

- MFI [1]: 9
- MFI [2]: 9
Substance: IgG isotype control antibody
